{
  "source": "patent US11505586B2",
  "about": "“Interaction of Draxin and γ-netrins” (Max-Planck-Gesellschaft zur Foerderung der Wissenschaften …, priority 2014, dated 2022)",
  "key": {"Netrin receptors": {"test_system": "Netrin receptors", "test": "AVEXIS direct binding to Netrin receptors", "set-up": "species or system zebrafish", "details": "AVEXIS platform", "description": "By using an AVEXIS-based competition assay (FIG. 6 A) we tested whether the binding of DraxinA to Netrin1a has an influence on Netrins ability to bind to Netrin receptors. First we confirmed that we reliably detected the binding of Netrin1a to Netrin receptors of the DCC/Neo1 and Unc5 families with the AVEXIS method. We also tested whether Draxin is able to bind to the corresponding Netrin receptors. […] This has also been confirmed by a recent publication (Haddick et al. 2014). In the competition assay the extracellular domains (ECDs) of Netrin receptors have been used as prey proteins together with purified full length DraxinA and probed for binding against Netrin1a bait proteins. […] The inhibition is specific for DraxinA."}, "recombinant human DCC": {"target": "T1, recombinant human DCC (Homo sapiens, UniProt P43146)", "T1 construct": "made in house; host or cells: HEK293-6E", "T1 sequence (P43146 26-1097 limits assumed)": "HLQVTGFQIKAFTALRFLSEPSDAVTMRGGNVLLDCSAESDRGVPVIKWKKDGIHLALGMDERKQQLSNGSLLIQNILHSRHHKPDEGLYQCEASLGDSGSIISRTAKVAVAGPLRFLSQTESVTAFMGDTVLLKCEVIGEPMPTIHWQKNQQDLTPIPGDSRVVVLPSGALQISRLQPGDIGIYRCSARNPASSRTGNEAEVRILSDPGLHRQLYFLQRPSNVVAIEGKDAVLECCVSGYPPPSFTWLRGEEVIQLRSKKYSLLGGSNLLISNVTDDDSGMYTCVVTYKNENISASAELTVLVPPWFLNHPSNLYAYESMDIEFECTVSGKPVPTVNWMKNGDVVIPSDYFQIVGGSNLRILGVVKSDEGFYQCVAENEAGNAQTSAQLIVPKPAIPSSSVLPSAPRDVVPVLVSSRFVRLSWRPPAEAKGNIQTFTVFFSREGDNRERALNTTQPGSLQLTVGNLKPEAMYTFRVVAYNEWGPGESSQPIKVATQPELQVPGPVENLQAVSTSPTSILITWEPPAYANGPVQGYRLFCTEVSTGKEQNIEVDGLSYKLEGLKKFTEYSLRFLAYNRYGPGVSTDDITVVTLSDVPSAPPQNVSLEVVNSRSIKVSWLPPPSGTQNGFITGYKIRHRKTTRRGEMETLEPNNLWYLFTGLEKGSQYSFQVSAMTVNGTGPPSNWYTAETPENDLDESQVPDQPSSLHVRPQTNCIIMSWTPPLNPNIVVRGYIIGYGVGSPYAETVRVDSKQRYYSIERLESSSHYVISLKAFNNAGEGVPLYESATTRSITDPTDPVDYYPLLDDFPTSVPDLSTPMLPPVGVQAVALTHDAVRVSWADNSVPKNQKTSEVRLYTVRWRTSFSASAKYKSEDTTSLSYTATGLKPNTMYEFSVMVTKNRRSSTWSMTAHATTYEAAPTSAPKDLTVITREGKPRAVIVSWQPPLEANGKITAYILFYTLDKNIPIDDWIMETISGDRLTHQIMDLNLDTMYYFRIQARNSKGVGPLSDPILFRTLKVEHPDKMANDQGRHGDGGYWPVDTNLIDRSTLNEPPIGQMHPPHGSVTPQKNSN", "test": "Surface Plasmon Resonance", "format": "binding", "details": "Biacore 3000, Draxin 0-18.8 nM", "protocol": "(§1) Surface Plasmon Resonance (SPR) experiments were performed on a Biacore 3000 (GE Healthcare) at 25° C. using a SA sensor chip in 0.01 M HEPES, pH 7.4, 0.15 M NaCl, 0.005% Surfactant P20 (HBS-P) running buffer at a flow rate of 30 μl/min. The instrument was used according to manufacturer's instructions.\n(§2) Recombinant human Draxin was purchased from R&D systems. Biotinylated recombinant human UNC5B, Netrin1 and DCC were produced recombinantly using the described mammalian expression system (HEK293-6E). Biotinylated proteins were immobilised on the SA coated sensor chip and Draxin was injected sequentially in increasing concentrations (0 nM, 1.2 nM. 2.3 nM, 4.7 nM, 9.4 nM, 18.8 nM) for 3 min. […] No binding of Draxin to UNC5B and DCC was detected (FIG. 14)."}, "recombinant human UNC5B": {"target": "T2, recombinant human UNC5B (Homo sapiens, UniProt Q8IZJ1)", "T2 construct": "made in house; host or cells: HEK293-6E", "test": "Surface Plasmon Resonance", "format": "binding", "details": "Biacore 3000, Draxin 0-18.8 nM", "protocol": "as §1, §2"}},
  "data": [
    {"molecule": "Draxin: Recombinant human Draxin purchased from R&D systems (protein, listed as Homo sapiens) MAGPAIHTAPMLFLVLLLPLELSLAGALAPGTPARNLPENHIDLPGPALWTPQASHHRRRGPGKKEWGPGLPSQAQDGAVVTATRQASRLPEAEGLLPEQSPAGLLQDKDLLLGLALPYPEKENRPPGWERTRKRSREHKRRRDRLRLHQGRALVRGPSSLMKKAELSEAQVLDAAMEESSTSLAPTMFFLTTFEAAPATEESLILPVTSLRPQQAQPRSDGEVMPTLDMALFDWTDYEDLKPDGWPSAKKKEKHRGKLSSDGNETSPAEGEPCDHHQDCLPGTCCDLREHLCTPHNRGLNNKCFDDCMCVEGLRCYAKFHRNRRVTRRKGRCVEPETANGDQGSFINV", "values": [
      {"measurement": "direct binding to Netrin receptors", "setting": "Netrin receptors", "value": "not able to detect direct binding"},
      {"measurement": "binding to immobilised DCC", "setting": "recombinant human DCC", "value": "No binding"},
      {"measurement": "binding to immobilised UNC5B", "setting": "recombinant human UNC5B", "value": "No binding"}
    ]}
  ]
}
